Assay results from the supplement of paper PMC10065799, “High-throughput profiling of sequence recognition by tyrosine kinases and SH2 domains using bacterial peptide display” (eLife, 2023).

How the values were obtained:
[1] = molecular target: SHP2-C SH2; assay: SH2 binding enrichment of the phosphorylated peptide, bacterial display (enrichment ratio); higher = better substrate or ligand; peptides without Tyr show the background
[2] = molecular target: Grb2 SH2 (UniProt P62993); assay: as above
[3] = molecular target: c-Src SH2; assay: as above
[4] = system: c-Src; assay: phosphorylation enrichment, bacterial display (enrichment ratio); higher = better substrate or ligand; peptides without Tyr show the background
[5] = molecular target: MERTK (UniProt Q12866); assay: as above
[6] = molecular target: EPHB2 (UniProt P29323); assay: as above
[7] = molecular target: FGFR3 (UniProt P22607); assay: as above
[8] = system: Fer (mouse); assay: as above
[9] = molecular target: Fes (UniProt P07332); assay: as above
[10] = system: AncSZ; assay: as above
[11] = system: c-Abl (mouse); assay: as above
[12] = molecular target: EPHB1 (UniProt P54762); assay: as above
[13] = molecular target: Fyn (UniProt P06241); assay: as above
[14] = molecular target: Hck (UniProt P08631); assay: as above
[15] = molecular target: Jak2 (UniProt O60674); assay: as above
[16] = molecular target: FGFR1 (UniProt P11362); assay: as above
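Wherever SH2 binding enrichment of the phosphorylated peptide, bacterial display is given: peptide library displayed on the E. coli surface as eCPX fusions, selected cells deep-sequenced, score is each peptide's frequency after selection divided by its frequency in the input.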
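Wherever phosphorylation enrichment, bacterial display is given: 11-residue human phosphosite peptides and single-mutation variants displayed on the E. coli surface, counted by deep sequencing, each peptide's frequency after selection divided by its frequency in the unselected input library; frequency after pTyr selection over input frequency; kinase dosed for 20-30% of maximal phosphorylation in three min.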

FGFR3, sequence (P22607 whole entry, looked up): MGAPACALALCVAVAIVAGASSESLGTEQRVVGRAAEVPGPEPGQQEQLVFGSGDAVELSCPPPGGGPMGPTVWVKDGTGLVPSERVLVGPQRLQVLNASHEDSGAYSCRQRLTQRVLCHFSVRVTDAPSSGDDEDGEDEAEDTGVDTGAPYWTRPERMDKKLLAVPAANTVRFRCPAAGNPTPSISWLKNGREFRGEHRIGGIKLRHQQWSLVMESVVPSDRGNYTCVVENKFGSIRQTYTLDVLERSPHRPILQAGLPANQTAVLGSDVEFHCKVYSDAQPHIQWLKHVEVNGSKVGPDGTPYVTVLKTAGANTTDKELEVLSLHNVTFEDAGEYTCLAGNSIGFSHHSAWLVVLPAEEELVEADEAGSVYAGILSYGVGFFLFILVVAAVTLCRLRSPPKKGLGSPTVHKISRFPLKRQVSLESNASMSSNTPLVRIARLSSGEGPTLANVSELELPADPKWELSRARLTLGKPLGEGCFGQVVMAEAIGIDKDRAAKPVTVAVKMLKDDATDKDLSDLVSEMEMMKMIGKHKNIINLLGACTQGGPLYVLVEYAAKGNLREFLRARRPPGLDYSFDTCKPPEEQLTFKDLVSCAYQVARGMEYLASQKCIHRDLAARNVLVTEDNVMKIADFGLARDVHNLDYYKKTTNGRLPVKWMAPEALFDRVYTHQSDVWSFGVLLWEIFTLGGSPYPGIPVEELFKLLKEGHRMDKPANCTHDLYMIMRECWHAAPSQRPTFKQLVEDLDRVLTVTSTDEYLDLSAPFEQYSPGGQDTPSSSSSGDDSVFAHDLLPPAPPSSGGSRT
MERTK, sequence (Q12866 whole entry, looked up): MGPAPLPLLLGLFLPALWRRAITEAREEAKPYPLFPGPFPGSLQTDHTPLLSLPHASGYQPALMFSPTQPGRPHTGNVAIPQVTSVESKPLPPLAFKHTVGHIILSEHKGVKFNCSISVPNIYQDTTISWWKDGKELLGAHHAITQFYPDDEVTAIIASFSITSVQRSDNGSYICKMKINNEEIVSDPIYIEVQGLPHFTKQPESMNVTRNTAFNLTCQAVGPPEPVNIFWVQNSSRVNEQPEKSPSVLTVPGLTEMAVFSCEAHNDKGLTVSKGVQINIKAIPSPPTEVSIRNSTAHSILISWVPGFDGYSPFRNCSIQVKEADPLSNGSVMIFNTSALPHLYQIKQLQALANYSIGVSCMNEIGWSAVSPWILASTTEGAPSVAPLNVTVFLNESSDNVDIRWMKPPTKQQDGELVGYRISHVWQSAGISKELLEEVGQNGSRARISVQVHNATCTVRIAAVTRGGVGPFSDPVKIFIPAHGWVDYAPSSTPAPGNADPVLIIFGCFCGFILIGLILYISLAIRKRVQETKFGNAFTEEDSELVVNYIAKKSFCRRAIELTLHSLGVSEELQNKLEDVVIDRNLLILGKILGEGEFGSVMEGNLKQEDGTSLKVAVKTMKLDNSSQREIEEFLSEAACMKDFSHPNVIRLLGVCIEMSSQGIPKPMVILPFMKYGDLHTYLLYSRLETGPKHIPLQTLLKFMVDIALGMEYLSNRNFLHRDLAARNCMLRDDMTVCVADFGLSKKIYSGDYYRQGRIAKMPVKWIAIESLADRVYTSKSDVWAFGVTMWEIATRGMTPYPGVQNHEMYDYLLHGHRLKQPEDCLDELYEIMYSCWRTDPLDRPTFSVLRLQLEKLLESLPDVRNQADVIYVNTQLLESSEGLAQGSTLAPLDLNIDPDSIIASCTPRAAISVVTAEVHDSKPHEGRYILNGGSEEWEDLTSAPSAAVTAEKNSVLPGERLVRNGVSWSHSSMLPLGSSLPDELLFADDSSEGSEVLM
EPHB2, sequence (P29323 whole entry, looked up): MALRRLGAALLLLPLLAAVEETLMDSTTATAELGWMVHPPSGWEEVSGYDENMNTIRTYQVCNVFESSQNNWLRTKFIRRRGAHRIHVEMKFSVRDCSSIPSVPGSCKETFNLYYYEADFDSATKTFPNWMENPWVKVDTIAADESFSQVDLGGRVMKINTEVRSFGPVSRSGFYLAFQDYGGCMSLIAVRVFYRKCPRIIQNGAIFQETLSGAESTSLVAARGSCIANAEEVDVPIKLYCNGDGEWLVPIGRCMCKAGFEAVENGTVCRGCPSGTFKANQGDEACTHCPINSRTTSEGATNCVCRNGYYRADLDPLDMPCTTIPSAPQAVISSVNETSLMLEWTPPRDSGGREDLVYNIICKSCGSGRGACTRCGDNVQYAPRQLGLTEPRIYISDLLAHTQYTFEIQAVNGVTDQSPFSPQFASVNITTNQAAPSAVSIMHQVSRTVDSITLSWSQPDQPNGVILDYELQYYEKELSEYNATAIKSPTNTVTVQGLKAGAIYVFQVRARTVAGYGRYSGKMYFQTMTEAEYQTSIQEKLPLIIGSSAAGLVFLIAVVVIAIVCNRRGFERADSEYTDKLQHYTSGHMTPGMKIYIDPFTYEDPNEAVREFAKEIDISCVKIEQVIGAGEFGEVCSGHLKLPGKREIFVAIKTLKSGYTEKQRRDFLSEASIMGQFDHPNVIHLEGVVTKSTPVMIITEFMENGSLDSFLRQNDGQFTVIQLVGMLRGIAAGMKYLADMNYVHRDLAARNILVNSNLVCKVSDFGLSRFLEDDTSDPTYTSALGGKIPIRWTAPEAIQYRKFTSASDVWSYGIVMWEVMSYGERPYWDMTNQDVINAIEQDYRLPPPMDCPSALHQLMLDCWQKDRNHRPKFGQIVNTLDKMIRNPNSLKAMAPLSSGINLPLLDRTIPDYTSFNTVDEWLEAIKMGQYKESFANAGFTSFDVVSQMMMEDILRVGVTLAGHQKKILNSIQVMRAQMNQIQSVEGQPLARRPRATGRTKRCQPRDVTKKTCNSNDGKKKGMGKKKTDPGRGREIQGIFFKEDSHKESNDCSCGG
Fes, sequence (P07332 whole entry, looked up): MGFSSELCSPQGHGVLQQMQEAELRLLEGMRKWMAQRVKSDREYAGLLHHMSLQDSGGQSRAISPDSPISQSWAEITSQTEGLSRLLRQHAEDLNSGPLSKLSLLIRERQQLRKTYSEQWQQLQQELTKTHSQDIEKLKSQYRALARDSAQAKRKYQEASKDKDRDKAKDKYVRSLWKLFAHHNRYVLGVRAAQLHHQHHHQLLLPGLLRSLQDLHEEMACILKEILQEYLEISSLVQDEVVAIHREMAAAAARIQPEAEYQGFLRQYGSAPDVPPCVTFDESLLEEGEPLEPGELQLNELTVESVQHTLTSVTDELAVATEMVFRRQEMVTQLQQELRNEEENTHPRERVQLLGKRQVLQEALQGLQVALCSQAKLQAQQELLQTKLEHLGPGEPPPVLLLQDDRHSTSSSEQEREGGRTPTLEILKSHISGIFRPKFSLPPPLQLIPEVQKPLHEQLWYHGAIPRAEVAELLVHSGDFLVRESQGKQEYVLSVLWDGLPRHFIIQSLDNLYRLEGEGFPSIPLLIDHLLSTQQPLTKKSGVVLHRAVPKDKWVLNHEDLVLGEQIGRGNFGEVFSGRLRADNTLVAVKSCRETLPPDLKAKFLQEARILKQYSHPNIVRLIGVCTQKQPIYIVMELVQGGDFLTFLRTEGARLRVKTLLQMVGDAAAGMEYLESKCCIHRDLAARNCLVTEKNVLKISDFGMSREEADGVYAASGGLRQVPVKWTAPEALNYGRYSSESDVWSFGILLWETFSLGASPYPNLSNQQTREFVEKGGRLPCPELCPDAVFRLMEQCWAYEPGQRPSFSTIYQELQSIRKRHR
Fyn, sequence (P06241 whole entry, looked up): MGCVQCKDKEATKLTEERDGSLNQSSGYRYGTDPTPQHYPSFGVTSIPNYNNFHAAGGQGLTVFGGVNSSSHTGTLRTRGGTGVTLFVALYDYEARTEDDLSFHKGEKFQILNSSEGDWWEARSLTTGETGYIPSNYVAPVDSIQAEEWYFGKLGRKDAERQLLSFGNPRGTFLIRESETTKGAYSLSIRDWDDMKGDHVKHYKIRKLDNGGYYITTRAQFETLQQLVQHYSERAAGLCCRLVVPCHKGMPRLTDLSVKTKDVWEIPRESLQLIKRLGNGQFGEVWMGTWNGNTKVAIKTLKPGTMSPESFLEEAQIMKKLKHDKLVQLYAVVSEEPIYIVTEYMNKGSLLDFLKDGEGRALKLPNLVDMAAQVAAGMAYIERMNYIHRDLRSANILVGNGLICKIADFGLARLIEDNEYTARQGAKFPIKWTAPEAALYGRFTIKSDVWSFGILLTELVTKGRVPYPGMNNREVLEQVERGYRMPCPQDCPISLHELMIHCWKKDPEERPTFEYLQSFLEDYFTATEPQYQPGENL
FGFR1, sequence (P11362 whole entry, looked up, the tested form may be a part): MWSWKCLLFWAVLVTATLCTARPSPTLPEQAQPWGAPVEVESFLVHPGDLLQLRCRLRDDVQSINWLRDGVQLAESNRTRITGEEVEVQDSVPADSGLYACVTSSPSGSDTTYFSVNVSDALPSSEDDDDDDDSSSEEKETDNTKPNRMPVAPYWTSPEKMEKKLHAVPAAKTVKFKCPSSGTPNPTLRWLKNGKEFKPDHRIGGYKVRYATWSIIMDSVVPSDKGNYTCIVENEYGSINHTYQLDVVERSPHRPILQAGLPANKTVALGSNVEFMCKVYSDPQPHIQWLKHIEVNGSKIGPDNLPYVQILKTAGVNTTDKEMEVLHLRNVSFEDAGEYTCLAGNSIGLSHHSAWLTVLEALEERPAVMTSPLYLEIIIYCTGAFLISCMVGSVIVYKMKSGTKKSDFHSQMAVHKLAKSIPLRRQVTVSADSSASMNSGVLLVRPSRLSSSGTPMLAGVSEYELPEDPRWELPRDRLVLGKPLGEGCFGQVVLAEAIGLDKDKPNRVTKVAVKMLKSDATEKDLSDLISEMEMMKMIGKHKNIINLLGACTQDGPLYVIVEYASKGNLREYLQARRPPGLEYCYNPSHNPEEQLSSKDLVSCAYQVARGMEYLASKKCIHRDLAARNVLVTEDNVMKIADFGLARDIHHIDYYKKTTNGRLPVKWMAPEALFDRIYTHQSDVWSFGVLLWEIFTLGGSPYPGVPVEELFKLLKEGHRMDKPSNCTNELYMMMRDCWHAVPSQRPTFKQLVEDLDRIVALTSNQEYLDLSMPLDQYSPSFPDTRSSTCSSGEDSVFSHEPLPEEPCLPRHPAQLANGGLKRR

Sequence | SH2 binding enrichment [1] | SH2 binding enrichment [2] | SH2 binding enrichment [3] | phosphorylation enrichment [4] | phosphorylation enrichment [5] | phosphorylation enrichment [6] | phosphorylation enrichment [7] | phosphorylation enrichment [8] | phosphorylation enrichment [9] | phosphorylation enrichment [10] | phosphorylation enrichment [11] | phosphorylation enrichment [12] | phosphorylation enrichment [13] | phosphorylation enrichment [14] | phosphorylation enrichment [15] | phosphorylation enrichment [16]
FRVAGYKTQGG [TIA1_Y383_E384K_YF] | 0.678 | 0.825 | 0.489 | 0.342 | 0.436 | 0.468 | 0.468 | 0.273 | 0.624 | 0.533 | 0.686 | 0.379 | 0.668 | 0.401 | 0.558 | 0.417
STSKTYVISRT [RBBP6_Y87] | 0.758 | 0.74 | 0.476 | 0.444 | 0.417 | 0.426 | 0.498 | 0.396 | 0.497 | 0.628 | 0.423 | 0.387 | 0.416 | 0.465 | 0.527 | 0.503
RHPYFYAPELL [ALB_Y174] | 0.891 | 1.34 | 0.796 | 0.776 | 0.622 | 0.762 | 10.8 | 0.476 | 1.19 | 1.38 | 0.694 | 0.564 | 0.517 | 0.474 | 1.13 | 12.7
ILDEAYVMAIV [EGFR_Y764_S768I] | 0.581 | 0.791 | 0.432 | 0.829 | 0.454 | 0.686 | 1.02 | 0.968 | 1.35 | 1.5 | 0.84 | 0.62 | 0.662 | 0.531 | 1.39 | 0.963
RLLRGHDQYAY [HLA-B_Y137] | 1.37 | 1.19 | 1.29 | 0.456 | 0.473 | 0.763 | 0.851 | 0.467 | 0.808 | 0.672 | 0.496 | 0.673 | 0.57 | 0.6 | 0.56 | 0.69
GVRFTYTIDGS [DCX_Y105_I104T_YF] | 0.545 | 0.87 | 0.475 | 0.435 | 0.423 | 0.67 | 0.729 | 0.384 | 1.33 | 1.26 | 0.715 | 0.458 | 0.426 | 0.496 | 1.24 | 0.601
DLDLTYIYPNI [PTEN_Y27] | 0.962 | 1.29 | 3.33 | 1.4 | 2.41 | 0.961 | 2.61 | 0.424 | 0.871 | 3.91 | 0.612 | 1.71 | 2.84 | 1.37 | 1.57 | 3.8
CTTIHYFFMCN [TP53_Y234_N235Y_YF] | 0.883 | 0.894 | 0.553 | 0.279 | 0.309 | 0.534 | 0.635 | 0.384 | 0.982 | 0.966 | 0.662 | 0.515 | 0.424 | 0.37 | 1.07 | 0.413
CGTPDNIAPEI [PRKCG_Y521_Y521N] | 0.533 | 0.777 | 0.485 | 0.458 | 0.459 | 0.762 | 0.933 | 0.548 | 1.49 | 1.17 | 0.782 | 0.72 | 0.593 | 0.609 | 0.989 | 0.51
LTMAPYSSVSV [FAM81A_Y24_L29V] | 3.6 | 0.783 | 3.26 | 1.07 | 0.527 | 0.531 | 0.899 | 9.11 | 1.08 | 1.05 | 0.811 | 0.683 | 0.575 | 0.724 | 0.933 | 0.653
YGGLRYGYGGL [KRTAP20-2_Y13_V17G] | 1.11 | 0.955 | 0.725 | 0.76 | 0.381 | 0.427 | 0.536 | 0.407 | 0.839 | 0.645 | 0.559 | 0.418 | 0.959 | 1.42 | 0.671 | 0.407
CEHFSYYGMKA [SLC15A2_Y60_R57H] | 0.661 | 0.961 | 1.24 | 2.37 | 1.54 | 0.644 | 3.17 | 0.812 | 0.933 | 1.06 | 0.708 | 0.52 | 0.866 | 1.93 | 5.02 | 5.26
SYCYRYRCAAW [SUMF1_Y344_R349W] | 1.88 | 1.6 | 1.67 | 0.471 | 0.497 | 0.453 | 0.508 | 0.404 | 0.785 | 0.707 | 0.594 | 0.445 | 0.395 | 0.386 | 0.508 | 0.532
IMNLLYHVVGW [GBA_Y412_T408M] | 1.66 | 1.61 | 1.41 | 5.2 | 7.65 | 2.71 | 5.38 | 2.16 | 0.872 | 0.963 | 2.74 | 4.93 | 4.49 | 6.31 | 2.43 | 6.14
CTTIHYDFMCN [TP53_Y234_N235D_YF] | 2.73 | 1.2 | 6.1 | 0.545 | 0.49 | 0.514 | 0.764 | 1.05 | 1.03 | 1.16 | 0.704 | 0.681 | 0.644 | 0.656 | 0.873 | 0.544
VILENYGADID [DNAH5_Y596_L591V] | 0.54 | 0.739 | 0.454 | 0.5 | 0.641 | 0.589 | 0.719 | 0.492 | 1.11 | 1.06 | 0.674 | 0.555 | 0.653 | 0.515 | 1.13 | 0.557
